Series [1] addresses Oryza sativa dioxygenase for auxin oxidation (OsDAO) (rice (Oryza sativa)) (UniProt Q7XKU5).
Substrate in series [2]: C=C1C[C@]23C[C@H]1CC[C@H]2[C@@]12CC[C@H](O)[C@@](C)(C(=O)O1)[C@H]2[C@@H]3C(=O)O
In words: GC-SIM-MS of GA34. Type of series: biochemical, Oryza sativa. Particulars: multimer forms measured separately (monomer, dimer, tetramer); same. An excerpt:
GC-SIM-MS of GA34 on OsGA2ox3 (GA 2-oxidase 3) | The […]/[…]-tetramer affected both the Km and the Vmax values

Substrate in series [3]: C=C1C[C@]23C[C@H]1CC[C@H]2[C@@]12CC[C@H](O)[C@@](C)(C(=O)O1)[C@H]2[C@@H]3C(=O)O
In words: GC-SIM-MS of GA34. In kind it is biochemical, Oryza sativa. Particulars: multimer forms measured separately; Methods print Cys187 instead of C186; same. An excerpt:
GC-SIM-MS of GA34 on OsGA2ox3 (GA 2-oxidase 3) | whereas the […]/[…] monomer affected only the Km

The source of these data is publication PMC7195466, “A common allosteric mechanism regulates homeostatic inactivation of auxin and gibberellin” (Nature Communications, 2020).

B1: Oryza sativa dioxygenase for auxin oxidation (OsDAO) (enzyme)
chain: MVEIPAIDLRLAGGGGGAEETARLRDACARLGCFRVSGHGVPPGLQAEMKAAVRALFDLPDDAKRRNADIIPGSGYVPPGTANPLYEAFGLCDAAAPADVDAFCARLDAPPHVRETVKAYAERMHSLIVDVAGKVAASLGLHGASFQDWPCQFRMNRYNYTQDSVGSPGVQVHTDSGFLTVLQEDECVGGLEVLDPAAGEFVPVDPLPGSFVVNVGDVGQAWSNGRLHNVKHRVQCVAAVPRVSIAMFLLAPKDDTVSAPGELVDGEHPRRYREFKYDDYRRLRLSTGERAGEALARLAA
Turning to B1, the Vmax of the dimer against the monomer (forms separated by gel filtration) in series [1] was 22 fold.

B2: OsGA2ox3 (GA 2-oxidase 3) (Oryza sativa Japonica Group; F100A/R97A) (protein)
chain: MVVLAGPPAVDHIPLLRSPDPGDVFSGVPVVDLGSPGAARAVVDACERYGFFKVVNHGVATDTMDKAESEAVRFFSQTQPDKDRSGPAYPFGYGSKAIGANGDMGWLEYLLLALDDASLADACTVPSCAVFRAALNEYISGVRKVAVRVMEAMSEGLGIAQADALSALVTAEGSDQVFRVNHYPPCRALQGLGCSVTGFGEHTDPQLVSVLRSNGTSGLQIALRDGQWVSVPSDRDSFFVNVGDSLQVLTNGRFKSVKHRVVANSLKSRVSFIYFGGPPLAQRIAPLPQLLGEGEQSLYKEFTWDEYKKAAYKSRLGDNRLAQFEKK
notes: full-length coding region in pGEX6P1, GST tag cut off with PreScission protease, E. coli Rosetta (DE3) pLysS; monomer, homotetramer with GA4
As to B2, the Km in “GC-SIM-MS of GA34 [2]” is 0.52 ± 0.10 (tetramer) μM.

B3: OsGA2ox3 (GA 2-oxidase 3) (Oryza sativa Japonica Group; C186A/W106A) (protein)
chain: MVVLAGPPAVDHIPLLRSPDPGDVFSGVPVVDLGSPGAARAVVDACERYGFFKVVNHGVATDTMDKAESEAVRFFSQTQPDKDRSGPAYPFGYGSKRIGFNGDMGALEYLLLALDDASLADACTVPSCAVFRAALNEYISGVRKVAVRVMEAMSEGLGIAQADALSALVTAEGSDQVFRVNHYPPARALQGLGCSVTGFGEHTDPQLVSVLRSNGTSGLQIALRDGQWVSVPSDRDSFFVNVGDSLQVLTNGRFKSVKHRVVANSLKSRVSFIYFGGPPLAQRIAPLPQLLGEGEQSLYKEFTWDEYKKAAYKSRLGDNRLAQFEKK
notes: as for B2
As for B3, the Km in the series “GC-SIM-MS of GA34 [3]” was 5.41 ± 0.96 (monomer) μM.
